Publication PMC4121237, “Engineering Neprilysin Activity and Specificity to Create a Novel Therapeutic for Alzheimer’s Disease” (PLoS ONE, 2014)
Residue numbers refer to the chain shown, from its start. Names may count otherwise.

Tests used:
Assay type in all cases: biochemical
Aβ1–40 = test: Steady-state kinetics of peptide cleavage, fluorescence polarisation; settings: for Km / kcat / Fold change in kcat/KM: substrate Aβ 1–40; for Km / kcat: 37°C, pH 7.4; for Fold change in kcat/KM: ratio of wild-type NEP kcat/KM to that of the mutant; for increase in kcat/KM (catalytic efficiency) on Aβ1–40 over wild-type NEP: substrate Aβ1–40, relative to wild-type NEP
Protocol: (§1) For detailed kinetic characterisation of peptide cleavage by NEP, a similar assay to that above was used with modifications based on a published method. Peptides were synthesised by Bachem using 9-fluorenylmethyloxycarbonyl solid-phase peptide synthesis and were labelled with a N-terminal 5(6)FAM via a ε-aminocaproic acid linker and a C-terminal biotin via a lysine linker (Table S1). Purified peptides were supplied as trifluoroacetate salts with a purity ≥95%. The assay was performed in a 96-well microtitre plate and contained 50 mM HEPES (pH 7.4), 100 mM NaCl, 0.05% (w/v) BSA (Buffer A), 1–200 µM peptide substrate and 1–500 nM NEP protein. Reactions were incubated at 37°C before being stopped at various time points between 2 and 360 min by transferring 5 µL aliquots to 245 µL Buffer A containing 2 mM 1,10-phenanethroline (Sigma) and 2 µM avidin (Invitrogen). For peptide substrates containing disulphide bonds, 1 mM tris(2-carboxyethyl)phosphine (Thermo Scientific) was added to the stop solution. The fluorescence polarisation of the resulting solution was measured on a Victor plate reader and the amount of substrate cleaved was determined with reference to substrate-only controls with and without avidin. Initial rates were obtained by linear regression of the linear regions of time courses. Enzyme velocity was plotted as a function of substrate concentration and the Michaelis-Menten equation was used to fit the data, giving the parameters kcat and KM.

Bradykinin = test: as above; settings: substrate Bradykinin; for Km / kcat: 37°C, pH 7.4; for Fold change in kcat/KM: ratio of wild-type NEP kcat/KM to that of the mutant
Protocol: as §1

Glucagon = test: as above; settings: substrate Glucagon; for Km / kcat: 37°C, pH 7.4; for Fold change in kcat/KM: ratio of wild-type NEP kcat/KM to that of the mutant
Protocol: as §1

Angiotensin = test: as above; settings: substrate Angiotensin; for Km / kcat: 37°C, pH 7.4; for Fold change in kcat/KM: ratio of wild-type NEP kcat/KM to that of the mutant
Protocol: as §1

Neurotensin = test: as above; settings: substrate Neurotensin; for Km / kcat: 37°C, pH 7.4; for Fold change in kcat/KM: ratio of wild-type NEP kcat/KM to that of the mutant
Protocol: as §1

[1] = tested on: Aβ1–40 or 1–42 and eight off-target peptides; test: High-throughput fluorescence polarisation screen of NEP variants; settings: high throughput screening, relative to wild-type
Protocol: To screen NEP variants for improved activity on and specificity towards Aβ a high-throughput assay was developed where cleavage activity on Aβ1–40 or 1–42 and eight off-target peptides (see Table S1) was determined by fluorescence polarisation. Peptide substrates were labelled with DY-505 or DY-647 at the N-terminus and biotin at the C-terminus. The biotin serves for increasing the molecular size of uncleaved peptides after addition of strepavidin, thereby increasing the assay window and measurable signals. Peptide cleavage assays were performed by incubating NEP variant samples in a microtitre plate containing assay solution composed of 60 nM peptide substrate in 50 mM HEPES (pH 7.4) containing 150 mM NaCl and 0.05% Pluronic F-68 (Sigma). […] The extent of peptide cleavage was determined by measuring the fluorescence polaristion of the stopped reactions on a plate reader (Tecan) with an appropriate set up of polarisation filters. […]
To rank these variants the change in activity on the Aβ1–40 peptide was divided by the average change in specificity on the other peptides and then by the specificity of the wild-type enzyme. […] At many other positions only a single amino acid substitution was detected as having improved specificity, and some of these provided the largest gains observed. […]

B1: NEP G714K: single mutant G714K of the human NEP ectodomain (protein, UniProt P08473 52-750, looked up, variant G714K)
extracellular domain: YDDGICKSSDCIKSAARLIQNMDATTEPCTDFFKYACGGWLKRNVIPETSSRYGNFDILRDELEVVLKDVLQEPKTEDIVAVQKAKALYRSCINESAIDSRGGEPLLKLLPDIYGWPVATENWEQKYGASWTAEKAIAQLNSKYGKKVLINLFVGTDDKNSVNHVIHIDQPRLGLPSRDYYECTGIYKEACTAYVDFMISVARLIRQEERLPIDENQLALEMNKVMELEKEIANATAKPEDRNDPMLLYNKMTLAQIQNNFSLEINGKPFSWLNFTNEIMSTVNISITNEEDVVVYAPEYLTKLKPILTKYSARDLQNLMSWRFIMDLVSSLSRTYKESRNAFRKALYGTTSETATWRRCANYVNGNMENAVGRLYVEAAFAGESKHVVEDLIAQIREVFIQTLDDLTWMDAETKKRAEEKALAIKERIGYPDDIVSNDNKLNNEYLELNYKEDEYFENIIQNLKFSQSKQLKKLREKVDKDEWISGAAVVNAFYSSGRNQIVFPAGILQPPFFSAQQSNSLNYGGIGMVIGHEITHGFDDNGRNFNKDGDLVDWWTQQSASNFKEQSQCMVYQYGNFSWDLAGGQHLNGINTLGENIADNGGLGQAYRAYQNYIKKNGEEKLLPGLDLNHKQLFFLNFAQVWCGTYRPEYAVNSIKTDVHSPKNFRIIGTLQNSAEFSEAFHCRKNSYMNPEKKCRVW
modifications: extracellular domain
notes: single mutant G714K of the human NEP ectodomain
Km (Aβ1–40): 42 ± 0.7 µM | kcat (Aβ1–40): 1.9 ± 0.2 s⁻¹ | Fold change in kcat/KM (Aβ1–40): 0.18 | increase in kcat/KM (catalytic efficiency) on Aβ1–40 over wild-type NEP (Aβ1–40): ~6 fold | Km (Bradykinin): 120 ± 8 µM | kcat (Bradykinin): 7.4 ± 0.3 s⁻¹ | Fold change in kcat/KM (Bradykinin): 7.5 | Km (Glucagon): 42 ± 5 µM | kcat (Glucagon): 5.2 ± 0.3 s⁻¹ | Fold change in kcat/KM (Glucagon): 1.5 | Km (Angiotensin): 18 ± 1 µM | kcat (Angiotensin): 12 ± 0.3 s⁻¹ | Fold change in kcat/KM (Angiotensin): 1.5 | Km (Neurotensin): 10 ± 0.7 µM | kcat (Neurotensin): 8.6 ± 0.2 s⁻¹ | Fold change in kcat/KM (Neurotensin): 0.98 | improvement in specificity ([1]; activity on Aβ1–40 relative to other peptides): approximately 12 fold | improvement in activity on Aβ [1]: ~7 fold

B2: NEP G399V: single mutant G399V of the human NEP ectodomain (protein, UniProt P08473 52-750, looked up, variant G399V)
extracellular domain: B1 extracellular domain with G349V, K664G
modifications: extracellular domain
notes: single mutant G399V of the human NEP ectodomain
Km (Aβ1–40): 55 ± 7 µM | kcat (Aβ1–40): 2.7 ± 0.2 s⁻¹ | Fold change in kcat/KM (Aβ1–40): 0.16 | increase in kcat/KM (catalytic efficiency) on Aβ1–40 over wild-type NEP (Aβ1–40): ~6 fold | Km (Bradykinin): 79 ± 10 µM | kcat (Bradykinin): 0.15 ± 0.01 s⁻¹ | Fold change in kcat/KM (Bradykinin): 250 | Km (Glucagon): 20 ± 2 µM | kcat (Glucagon): 2.9 ± 0.1 s⁻¹ | Fold change in kcat/KM (Glucagon): 1.2 | Km (Angiotensin): 3.6 ± 0.4 µM | kcat (Angiotensin): 0.73 ± 0.03 s⁻¹ | Fold change in kcat/KM (Angiotensin): 4.6 | Km (Neurotensin): 12 ± 1 µM | kcat (Neurotensin): 1.1 ± 0.04 s⁻¹ | Fold change in kcat/KM (Neurotensin): 8.2
